Values quoted from earlier work in PMC3310390.
Like-named read-outs stand apart in the source and are kept apart here.

Legend:
[1] = target: Sir3 (Saccharomyces cerevisiae) (UniProt P06701)
[2] = target: Sir3 (Saccharomyces cerevisiae) (UniProt P06701); remark: listed apart in the source
[3] = target: Sir3 (Saccharomyces cerevisiae) (UniProt P06701); remark: listed apart in the source

Sir3 (from UniProt P06701)
Kd [1]: 2 nM

Sir2 (from UniProt P06700)
Kd [2]: 60 nM

Sir2/Sir4 complex (from UniProt P06700)
Kd [3]: 0.03 nM
